Positions count from the first letter of the chain named.
T1: recombinant human CD123-Fc (human, UniProt P26951 19-305)
T1 construct: not shown: Fc part of CD123-Fc
T1 sequence: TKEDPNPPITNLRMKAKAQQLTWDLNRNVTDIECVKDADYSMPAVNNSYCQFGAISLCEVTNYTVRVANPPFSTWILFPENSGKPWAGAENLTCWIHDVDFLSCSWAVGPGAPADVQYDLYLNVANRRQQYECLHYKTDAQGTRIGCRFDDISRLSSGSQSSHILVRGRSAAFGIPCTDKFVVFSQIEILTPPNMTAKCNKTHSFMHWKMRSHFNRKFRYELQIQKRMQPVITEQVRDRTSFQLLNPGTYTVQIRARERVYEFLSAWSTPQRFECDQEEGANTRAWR

B1: SEQ ID NO 671 (designed binder)
chain: MGSWDEFSERLDAIWGRLEALGGSEAELATFEFHIAEFEHELQYYKGKGNPEVEALQGEAAAIINELYAYRHN
B2: SEQ ID NO 641 (designed binder)
chain: MGSWWEFYDRLTAIEARLWALGGSEAELADFEEGIADFEYDLQDYKGKGNPEVEALFWEAWAIQSELTAYRHN
B3: SEQ ID NO 673 (designed binder)
chain: MGSWDEFDDRLEAIVDRLFALGGSEAELAMFEFEIAQFEHQLQYYKGKGNPEVEALRDEADAIWIELDAYRHN
B4: SEQ ID NO 664 (designed binder)
chain: MGSWYEFESRLDAIVDRLWALGGSEAELAEFEYEIAKFEWELQDYKGKGNPEVEALNWEAGAIEFELYAYRHN
B5: SEQ ID NO 653 (designed binder)
chain: MGSWEEFYYRLHAIDNRLWALGGSEAELAYFEWHIADFELELQDYKGKGNPEVEALSEEATAIFEELWAYRHN
B6: SEQ ID NO 652 (designed binder)
chain: MGSWVEFYNRLDAIENRLWALGGSEAELAFFEELIAQFEFALQDYKGKGNPEVEALEDEADAIWEELMAYRHN
B7: SEQ ID NO 657 (designed binder)
chain: MGSWDEFHQRLAAIGDRLWALGGSEAELAYFEWEIATFEWDLQVYKGKGNPEVEALYFEATAIDEELMAYRHN
B8: SEQ ID NO 644 (designed binder)
chain: MGSWEEFFFRLEAIDDRLYALGGSEAELALFEEVIAYFEQDLQWYKGKGNPEVEALYVEAYAIQEELYAYRHN
B9: SEQ ID NO 675 (designed binder)
chain: MGSWFEFEWRLDAIENRLNALGGSEAELAWFEYHIAAFEDSLQHYKGKGNPEVEALEWEAHAIQSELQAYRHN
B10: SEQ ID NO 660 (designed binder)
chain: MGSWHEFDDRLDAIMSRLDALGGSEAELATFEAEIATFEFVLQLYKGKGNPEVEALLAEAYAIDWELEAYRHN
B11: SEQ ID NO 650 (designed binder)
chain: MGSWWEFTDRLEAIEDRLWALGGSEAELAHFEDSIAQFEQELQWYKGKGNPEVEALADEADAIESELHAYRHN
B12: SEQ ID NO 646 (designed binder)
chain: MGSWFEFEERLEAIIYRLWALGGSEAELAMFEESIAWFESDLQQYKGKGNPEVEALEYEAMAISKELKAYRHN
B13: SEQ ID NO 645 (designed binder)
chain: MGSWFEFEERLNAISWRLHALGGSEAELAYFEEDIAWFEDDLQFYKGKGNPEVEALENEAYAIWEELDAYRHN
B14: SEQ ID NO 642 (designed binder)
chain: MGSWYEFEDRLAAIEARLWALGGSEAELADFEEEIAYFEHGLQWYKGKGNPEVEALESEAMAIIDELHAYRHN
B15: SEQ ID NO 712 (designed binder)
chain: MGSWIEFEDRLYAIEDRLWALGGSEAELAAFEKEIAAFESELQAYKGKGNPEVEFLRYEAAEIRYWLQAYRHN
B16: SEQ ID NO 676 (designed binder)
chain: MGSWYEFDDRLEAIWDRLGALGGSEAELAAFEKEIAAFESELQAYKGKGNPEVEWLRETAADIRAELQAYRHN
B17: SEQ ID NO 678 (designed binder)
chain: B15 chain with D9V, Y12D, E15W, W19F, F55Y, Y58D, E62D, Y65Q, W66S
B18: SEQ ID NO 679 (designed binder)
chain: B16 chain with Y5T, D9R, E12D, G19F, T59E, A65D, E66Y
B19: SEQ ID NO 680 (designed binder)
chain: B16 chain with Y5T, D9M, E12D, G19F, W55E, T59E, D62T, A65G, E66V
B20: SEQ ID NO 681 (designed binder)
chain: B15 chain with I5E, E8H, Y12M, D16T, F55W, E62D, Y65D, W66Y
B21: SEQ ID NO 655 (designed binder)
chain: MGSWEEFDERLWAISDRLWALGGSEAELAYFEGEIAYFEQNLQTYKGKGNPEVEALQTEALAIDTELWAYRHN
B22: SEQ ID NO 640 (designed binder)
chain: MGSWAEFEDRLAAIERRLEALGGSEAELADFESSIAWFEPDLQYYKGKGNPEVEALMYEAEAIFSELYAYRHN
B23: SEQ ID NO 649 (designed binder)
chain: MGSWWEFTDRLDAIFDRLWALGGSEAELAAFEESIAIFEQDLQYYKGKGNPEVEALEYEANAIQYELEAYRHN
B24: SEQ ID NO 648 (designed binder)
chain: MGSWDEFEERLQAIEYRLWALGGSEAELAWFEEVIAQFEYDLQKYKGKGNPEVEALSTEAQAIQDELWAYRHN
B25: SEQ ID NO 670 (designed binder)
chain: MGSWYEFDARLDAIEERLYALGGSEAELAAFEFEIAGFEEALQWYKGKGNPEVEALLKEAEAITDELYAYRHN
B26: SEQ ID NO 659 (designed binder)
chain: MGSWDEFDTRLDAIFSRLYALGGSEAELAMFEGEIAEFEGSLQHYKGKGNPEVEALDFEAHAIDEELWAYRHN
B27: SEQ ID NO 647 (designed binder)
chain: MGSWAEFDDRLEAIEYRLHALGGSEAELAWFEEGIAGFEHALQSYKGKGNPEVEALETEAGAINEELWAYRHN
B28: SEQ ID NO 662 (designed binder)
chain: MGSWFEFLYRLDAIEDRLWALGGSEAELAEFEQEIAKFESELQSYKGKGNPEVEALEWEAHAIDMELEAYRHN
B29: SEQ ID NO 654 (designed binder)
chain: MGSWREFHDRLFAIDGRLWALGGSEAELANFEWDIADFEFELQDYKGKGNPEVEALSWEADAIMQELGAYRHN
B30: SEQ ID NO 667 (designed binder)
chain: MGSWEEFDDRLDAIEHRLWALGGSEAELADFEGSIAAFESWLQVYKGKGNPEVEALEAEAEAIADELWAYRHN
B31: SEQ ID NO 651 (designed binder)
chain: MGSWVEFFWRLDAIEDRLWALGGSEAELANFEFEIADFEAWLQKYKGKGNPEVEALHSEADAIQLELRAYRHN
B32: SEQ ID NO 661 (designed binder)
chain: MGSWYEFFDRLDAIYDRLYALGGSEAELASFEAQIAEFEVELQSYKGKGNPEVEALEWEAWAIDEELYAYRHN
B33: SEQ ID NO 668 (designed binder)
chain: MGSWYEFADRLDAIMDRLVALGGSEAELAYFEWEIAAFEEFLQMYKGKGNPEVEALDEEAEAIKDELMAYRHN
B34: SEQ ID NO 672 (designed binder)
chain: MGSWDEFWDRLDAIEDRLFALGGSEAELADFERVIAWFENDLQEYKGKGNPEVEALDNEADAIRIELHAYRHN
B35: SEQ ID NO 656 (designed binder)
chain: MGSWEEFEQRLWAIDDRLWALGGSEAELAFFEYEIAEFEMDLQWYKGKGNPEVEALFYEAHAINEELWAYRHN
B36: SEQ ID NO 643 (designed binder)
chain: MGSWWEFSWRLEAIETRLDALGGSEAELAFFEMDIAWFEQDLQLYKGKGNPEVEALEEEAYAIYEELEAYRHN
B37: SEQ ID NO 666 (designed binder)
chain: MGSWGEFMDRLEAIDYRLWALGGSEAELAWFESDIAEFEQELQMYKGKGNPEVEALWDEAMAIRDELFAYRHN
B38: SEQ ID NO 665 (designed binder)
chain: MGSWYEFEDRLDAILYRLLALGGSEAELAWFERDIAFFESELQWYKGKGNPEVEALEWEAMAIDDELFAYRHN
B39: SEQ ID NO 674 (designed binder)
chain: MGSWEEFTIRLGAIYWRLFALGGSEAELANFEWFIAEFEYELQPYKGKGNPEVEALVIEANAIDGELQAYRHN
B40: SEQ ID NO 658 (designed binder)
chain: MGSWVEFEYRLDAISDRLWALGGSEAELAFFENEIASFESDLQFYKGKGNPEVEALMFEAEAIDDELHAYRHN
B41: SEQ ID NO 669 (designed binder)
chain: MGSWNEFWERLDAIEWRLFALGGSEAELAFFELDIAWFEEELQWYKGKGNPEVEALIFEAHAITLELDAYRHN
B42: SEQ ID NO 663 (designed binder)
chain: MGSWLEFEDRLVAIDHRLFALGGSEAELAEFEEEIALFESYLQDYKGKGNPEVEALNWEADAIHAELYAYRHN

molecular target: T1, recombinant human CD123-Fc; test: phage ELISA, A450 target/A450 IgG1-Fc
Outline: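 The ELISA ratio divides target absorbance by IgG1-Fc absorbance and averages this over all screened wells holding a given clone. Phage came from phagemid colonies picked from panning output and were rescued with VCSM13 helper phage in 96-well format. After coating with 1.3 microg/ml goat anti-human IgG1-Fc antibody, wells were loaded with 5 nM recombinant human target or IgG1-Fc, then with 50 microl phage diluted 5× in ELISA blocking buffer, and bound phage were read at 450 nm using HRP-conjugated anti-M13 antibody.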

Row | ELISA_avg [ratio] | Binder
1 | 3.2 | B1
2 | 3.2 | B2
3 | 5.6 | B3
4 | 5.1 | B4
5 | 3 | B5
6 | 6.9 | B6
7 | 3.7 | B7
8 | 3.2 | B8
9 | 3.3 | B9
10 | 7.7 | B10
11 | 16.6 | B11
12 | 3.7 | B12
13 | 13 | B13
14 | 3.8 | B14
15 | 4 | B15
16 | 3.3 | B16
17 | 4.2 | B17
18 | 9.2 | B18
19 | 3.1 | B19
20 | 4.3 | B20
21 | 6.5 | B21

Row | ELISA_avg [ratio] | Binder
22 | 4.2 | B22
23 | 7.5 | B23
24 | 3.8 | B24
25 | 8.9 | B25
26 | 4 | B26
27 | 5.8 | B27
28 | 6.6 | B28
29 | 5.6 | B29
30 | 4 | B30
31 | 4 | B31
32 | 4.7 | B32
33 | 3.3 | B33
34 | 3.9 | B34
35 | 5.7 | B35
36 | 3.3 | B36
37 | 4.6 | B37
38 | 4.3 | B38
39 | 3.3 | B39
40 | 6.5 | B40
41 | 3 | B41
42 | 3.9 | B42
